{"source": "paper doi:10.64898/2025.12.17.695035", "biological_target": "E. coli RNAP as used in the ITC experiments (E. coli) (UniProt P0A7Z4)", "test": "ITC"}
{"substance": "Escherichia phage protein EP1 (from UniProt A0A0N9RSC1 1-107) (natural protein)", "values": [{"measurement": "Kd", "value": 34, "unit": "nM"}]}
